Experiment [1] has as its target T1, cyno PD-L1^ECD-hFc protein (cyno, UniProt G7PSE7 19-239).
T1 construct: also called Cyno Monkey PD-L1^ECD-hFc
Kind of experiment: ELISA, 1.111 nM mAb. The protocol:
(§1) 100 μL of the diluted recombinant proteins were added to each well of 96-well plate. The plates were sealed with plastic film and incubated at 4° C. overnight. The plates were washed twice with wash buffer (PBS+0.01% (v/v) Tween20), and incubated with blocking buffer (PBS+0.01% (v/v) Tween20+1% (w/w) BSA) at room temperature for 2 hours. The blocking buffer was aspirated away, and 100 μL of purified anti-PD-L1 antibodies were added to each well and incubated for 2 hours at 37° C. The plates were washed three times with wash buffer (PBS+0.01% (v/v) Tween20). HRP-conjugated secondary antibody (Sigma) was added to each well and incubated for 2 hours at 37° C. After the plates were washed three times with wash buffer, 100 μL TMB substrate were added to each well, and the plates were incubated for 30 minutes at room temperature. 100 μL stop solution (0.1N HCl) was added to each well to stop the reaction.

In experiment [2] the target is T2, human PD-L1^ECD-hFc protein (human, UniProt Q9NZQ7 19-239, biotinylated in the PD-1 binding ELISA (Table 3) and in the Octet assay (Table 12)).
T2 construct: The plain and the biotinylated protein are kept as one molecule; also called PD-L1-hFc; Immunogen A; not shown: human IgG Fc fragment (hFc)
In words: ELISA, 1.111 nM mAb. As for the experimental part:
as §1

For experiment [3], the target named is T1, cyno PD-L1^ECD-hFc protein. In words: ELISA, 3.333 nM mAb. As for the experimental part: as §1
Experiment [4] concerns the target T3, full length human PD-L1 on cells (human, UniProt Q9NZQ7 19-290).
T3 construct: Also used as the target of the cell-based functional assays (transfected stimulator cells; PD-L1 of the cells in the mixed lymphocyte reaction); also called CHO-K1-hPD-L1; CHOK1-hPD-L1
In words: FACS CHO-K1-hPD-L1, 0.41 nM mAb. As for the experimental part:
(§2) Other CHO-K1 were stably transfected with a pIRES plasmid containing the nucleic acid sequence encoding full length cyno PD-L1 to generate CHO-K1 cells stably expressing cyno PD-L1 (herein referred to as CHO-K1-cPD-L1 cells). […] The culture media was aspirated, and the cells were washed twice with HBSS (Hanks Balanced Salt Solution, Invitrogen). The cells were treated with enzyme-free cell dissociation solution (Versene solution, Invitrogen) and collected. The cells were then washed twice with HBSS, cell counts were determined, and cells were resuspended with HBSS at 2×10⁶ cells/mL. Goat serum was added to the cell suspension to a final concentration of 1%, and the cells were blocked for 30 minutes on ice and then washed twice with HBSS. The cells were collected after centrifugation and resuspended in FACS buffer (HBSS+1% BSA, v/v) at 2×10⁶ cells/mL. 100 μL of the cell suspension were then added to each well of 96-well plate. 100 μL of purified anti-PD-L1 antibodies from Example 2 were added to each well of the 96-well plate and incubated for 2 hours on ice. […] The samples were washed three times with FACS buffer, and 100 μL fixation buffer (4% paraformaldehyde v/v) were added to each well and incubated for 10 minutes. The cells were then washed twice with FACS buffer and resuspended in 100 μL FACS buffer. The mean fluorescence intensity (MFI) was determined using FACS Calibur (BD), and the results are shown in FIGS. 7-8 and in Tables 10-11.

For experiment [5], the target named is T1, cyno PD-L1^ECD-hFc protein. In words: ELISA, 10 nM mAb. As for the experimental part:
as §1

The target in experiment [6] is T1, cyno PD-L1^ECD-hFc protein. Kind of experiment: ELISA, 0.370 nM mAb. As for the experimental part: as §1
In experiment [7] the target is T2, human PD-L1^ECD-hFc protein. Kind of experiment: ELISA, 0.370 nM mAb. The protocol: as §1
Experiment [8] addresses T4, full length cyno PD-L1 on cells (cyno, UniProt G7PSE7 19-290).
T4 construct: also called CHO-K1-cPD-L1
Kind of experiment: FACS CHO-K1-cPD-L1, 0.01 nM mAb. As for the experimental part: as §2

The target in experiment [9] is T3, full length human PD-L1 on cells. In words: cell-based or functional assay.
For experiment [10], the target named is T2, human PD-L1^ECD-hFc protein. In words: ELISA receptor-ligand blocking assay: PD-L1^ECD-hFc coated on the plate, antibody titrated, blocked ligand biotinylated B7.1^ECD, HRP-streptavidin, inhibition rate (%). As for the experimental part:
Purified PD-L1^ECD-hFc (Example 2) was diluted with PBS to a final concentration of 1.0 μg/mL, and 100 μL diluted PD-L1^ECD-hFc were added to each well of a 96-well plate that was then sealed with plastic film and incubated at 4° C. overnight. The plate was washed twice with wash buffer (PBS+0.01% (v/v) Tween 20) and incubated with blocking buffer (PBS+[…]) at room temperature for 2 hours. The blocking buffer was aspirated, and 50 μL purified anti-PD-L1 antibodies from Example 2 were added to each well of 96-well plate. […] The plate was washed three times with wash buffer (PBS+0.01% (v/v) Tween 20). 100 μL HRP-conjugated streptavidin (Sigma) were then added to each well and incubated at 37° C. for 2 hours. The plate was then washed three times with wash buffer, and 100 μL TMB substrate were added to each well. After 30 minutes of incubation at room temperature, the reaction was stopped by adding 100 μL stop solution (0.1N HCl).

In experiment [11] the target is T4, full length cyno PD-L1 on cells. In words: FACS CHO-K1-cPD-L1, 1 nM mAb. As for the experimental part:
as §2

Experiment [12] concerns the target T2, human PD-L1^ECD-hFc protein. In words: ELISA, 0.01 nM mAb. The protocol: as §1

Where a chain is given by its changes, count along the chain named.

T4 sequence (G7PSE7 entry or part of it limits assumed): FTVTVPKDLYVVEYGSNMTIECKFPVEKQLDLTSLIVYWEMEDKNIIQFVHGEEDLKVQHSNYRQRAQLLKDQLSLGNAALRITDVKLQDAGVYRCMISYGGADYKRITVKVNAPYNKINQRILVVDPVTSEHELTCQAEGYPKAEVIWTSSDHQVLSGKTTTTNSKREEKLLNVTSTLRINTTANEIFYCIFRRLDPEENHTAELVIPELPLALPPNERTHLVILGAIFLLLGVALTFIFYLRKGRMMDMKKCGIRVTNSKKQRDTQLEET
T3 sequence (Q9NZQ7 19-290 limits assumed): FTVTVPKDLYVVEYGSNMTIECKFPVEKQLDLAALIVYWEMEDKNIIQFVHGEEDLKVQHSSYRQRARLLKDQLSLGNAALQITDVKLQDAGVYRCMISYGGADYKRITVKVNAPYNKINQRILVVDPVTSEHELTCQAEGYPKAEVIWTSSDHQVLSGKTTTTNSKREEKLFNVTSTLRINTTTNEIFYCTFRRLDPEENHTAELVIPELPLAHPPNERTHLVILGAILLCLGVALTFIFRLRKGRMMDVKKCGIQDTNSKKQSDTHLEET
T1 sequence (G7PSE7 entry or part of it limits assumed): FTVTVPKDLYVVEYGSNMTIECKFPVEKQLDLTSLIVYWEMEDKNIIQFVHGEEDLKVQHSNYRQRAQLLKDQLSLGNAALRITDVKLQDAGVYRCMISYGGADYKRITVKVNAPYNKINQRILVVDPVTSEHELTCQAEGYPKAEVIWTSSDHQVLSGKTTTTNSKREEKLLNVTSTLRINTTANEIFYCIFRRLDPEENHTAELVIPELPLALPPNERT
T2 sequence (Q9NZQ7 19-239): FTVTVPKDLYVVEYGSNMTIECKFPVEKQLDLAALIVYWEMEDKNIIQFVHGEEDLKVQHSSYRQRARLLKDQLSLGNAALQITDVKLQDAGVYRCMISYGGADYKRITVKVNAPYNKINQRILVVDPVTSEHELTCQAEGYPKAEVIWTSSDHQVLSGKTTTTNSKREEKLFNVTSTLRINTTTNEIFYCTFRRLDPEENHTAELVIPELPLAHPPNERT

B1: chimeric anti-PD-L1 antibody 105C5D7 (antibody, V domains shown)
VH: EVQLVESGGGLVQPGGSLRLSCAASGFTFSSYWMSWVRQAPGKGLEWVANIKQDGNEKYYVDSVKGRFTISRDNAKNSLYLQMNSLRAEDTAVYYCARNIKWGDAFDIWGQGTMVTVSS
VL: DIQMTQSPSSLSASVGDRVTITCRASQSISSYLNWYQQKPGKAPKLLIYAASSLQSGVPSRFSGSGSGTDFTLTISSLQPEDFAIYSCQQSYSIPLTFGGGTKVEIK
notes: Purified from hybridoma of Harbour H2L2 mice: human variable regions, rat constant regions
As to B1, the OD450 nm in experiment [1] came to 1.32; in experiment [2], 1.32; in experiment [3], 1.5; in [5], 1.56; in [6], 1.19; in experiment [7], 1.19. Besides, the Mean fluorescence intensity in experiment [4] came out at 137.

B2: chimeric anti-PD-L1 antibody 127D2F3 (antibody, V domains shown)
VH: EVQLVESGGGLVQPGGSLRLSCVASGFTFSSYWMSWVRQAPGKGLEWVANIKQDGSEKYYVDSVKGRLTISRDNAKNSLYLQMKSLRAEDTAVYYCARDPIYSSYFDYWGQGILVTVSS
VL: B1 VL with S31N, I85A, S87Y, S93G, L96F, G100P, E105D
notes: as for B1
B2 yielded a Mean fluorescence intensity in experiment [8] of 3.08. Besides, in experiment [9], the “IFN-γ (pg/mL), MLR, 0.001 µg/mL mAb” value came out at 6040 pg/mL; the “IFN-γ (pg/mL), MLR, 0.01 µg/mL mAb” value stood at 6280 pg/mL; the “IFN-γ (pg/mL), MLR, 0.1 µg/mL mAb” value worked out at 8760 pg/mL; the “IFN-γ (pg/mL), MLR, 1 µg/mL mAb” value stood at 12600 pg/mL. Also, the “IC50 (read off the curve)” value in experiment [10] was about 0.4 nM. Besides, the Mean fluorescence intensity in experiment [11] worked out at 80.5. This molecule also registered an OD450 nm in experiment [12] of 0.38.

B3: chimeric anti-PD-L1 antibody 73D3G2 (antibody, V domains shown)
VH: EVQLVESGGGLVQPGGSLRLSCAASGFTFNTYWMNWVRQAPGRGLEWVANIKQDGGEKYYVDSVKGRFTISRDNAKNSLYLQMNSLRAEDTAMYYCARDGRSWYPDAFDIWGQGTVVTVSS
VL: DIQMTQSPSTLSASVGDRVTITCRASQSISTWLAWYQQKLGKAPKLLIYEVSILESGVPSRFSGSGSGTEFTLTISSLQPDDFATYYCQQYHSFSSFGGGTRVEIK
notes: as for B1
With B3, the OD450 nm in experiment [1] stood at 1.81; in [2], 1.81; in experiment [3], 2.03; in experiment [5], 2.09; in experiment [6] it was 1.29; in experiment [7], 1.29. In addition, the Mean fluorescence intensity in experiment [4] came to 87.

B4: chimeric anti-PD-L1 antibody 78A11F6 (antibody, V domains shown)
VH: EVQLVESGGGLVQPGGSLRLSCAASGITFSSYWMSWVRQTPGKGLEWVANIKQDGSEKYYVKSVKGRFTISRDNAKNSLYLQMNSLRAEDTAVYYCVRDRAVPGTGAFDIWGQGTMVIVSS
VL: DIQMTQSPSTLSASVGDRVTITCRASQSISNWLAWYQQKPGKAPKLLIYKASSLESGVPSRFSGSGSGTEFTLTISSLQPDDFATYYCQQYDSSLFTFGQGTKLEIK
notes: as for B1
With B4, the OD450 nm in [1] is 1.92; in experiment [2] it was 1.86; in experiment [3] it was 2; in experiment [5] it was 2.07; in [6] it was 1.5; in experiment [7], 1.39. This molecule also returned a Mean fluorescence intensity in [4] of 105.

B5: chimeric anti-PD-L1 antibody 73G11B3 (antibody, V domains shown)
VH: B4 VH with A23V, A24V, I27F, K62D, F68L, F108L, I118T
VL: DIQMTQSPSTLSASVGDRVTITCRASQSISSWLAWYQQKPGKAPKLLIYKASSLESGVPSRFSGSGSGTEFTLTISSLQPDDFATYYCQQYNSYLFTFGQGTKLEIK
notes: as for B1
Molecule B5 returned a Mean fluorescence intensity in experiment [8] of 3.83. Also, in experiment [9], the “IFN-γ (pg/mL), MLR, 0.001 µg/mL mAb” value came out at 3340 pg/mL; the “IFN-γ (pg/mL), MLR, 0.01 µg/mL mAb” value came out at 3390 pg/mL; the “IFN-γ (pg/mL), MLR, 0.1 µg/mL mAb” value stood at 7480 pg/mL; the “IFN-γ (pg/mL), MLR, 1 µg/mL mAb” value worked out at 16400 pg/mL. The “IC50 (read off the curve)” value in [10] was about 0.5 nM. This molecule registered a Mean fluorescence intensity in [11] of 94.9. The same molecule yielded an OD450 nm in experiment [12] of 0.28.

B6: chimeric anti-PD-L1 antibody 192D9E7 (antibody, V domains shown)
VH: EVQLVESGGGLVQPGGSLRLSCAASGFTFSSYWMSWVRQAPGKGLEWVADIKQDGSEKYYVDSVKGRFTISRDNAKNSLYLQMNSLRAEDTAVYYCTRDKPHWGGVMDAWGQGTSVTVSS
VL: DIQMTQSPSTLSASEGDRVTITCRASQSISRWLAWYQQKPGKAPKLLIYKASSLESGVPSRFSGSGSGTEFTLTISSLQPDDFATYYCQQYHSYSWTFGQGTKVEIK
notes: as for B1
In experiment [8], B6 registered a Mean fluorescence intensity of 3.38. In [9], the “IFN-γ (pg/mL), MLR, 0.001 µg/mL mAb” value was 4730 pg/mL; the “IFN-γ (pg/mL), MLR, 0.01 µg/mL mAb” value was found to be 8100 pg/mL; the “IFN-γ (pg/mL), MLR, 0.1 µg/mL mAb” value was found to be 9060 pg/mL; the “IFN-γ (pg/mL), MLR, 1 µg/mL mAb” value is 12400 pg/mL. Besides, in experiment [11], the Mean fluorescence intensity was 77.2. This molecule also registered an OD450 nm in [12] of 0.4.

The values are drawn from patent publication US20190010233A1 (JIANGSU HYAMAB PHARMACEUTICAL, published 2019).
